First the molecules themselves.
B1: Dynamin-binding protein, residues 242 to 304; numbered along this chain, Q6XZF7 (parent)
chain: EEPGTYGVALYRFQALEPNELDFEVGDKIRILATLEDGWLEGSLKGRTGIFPYRFVKLCPDTR

This is an account of results in the Human Domainome abundance scans (Beltran et al. 2025).

± gives the uncertainty stated by the source.

Variants of B1 are the subject of this data set. In words: abundance fitness (aPCA) (normalised: wild type 0, dead -1); higher = more abundant; growth selection in yeast, the domain comes from the species named. The following applies: Homo sapiens.
With EEPGTYGVALYRFQALEPNELDFLVGDKIRILATLEDGWLEGSLKGRTGIFPYRFVKLCPDTR [E24L], the abundance fitness was -0.491 ± 0.082.
As for EEPGTYGVALYRFQALEPNELDFQVGDKIRILATLEDGWLEGSLKGRTGIFPYRFVKLCPDTR [E24Q], the abundance fitness is -0.024 ± 0.15.
As for EEPGTYGVALYRFQALEPNELDFRVGDKIRILATLEDGWLEGSLKGRTGIFPYRFVKLCPDTR [E24R], the abundance fitness is -0.445 ± 0.07.
With EEPGTYGVALYRFQALEPNELDFTVGDKIRILATLEDGWLEGSLKGRTGIFPYRFVKLCPDTR [E24T], the abundance fitness is -0.278 ± 0.086.
Regarding EEPGTYGVALYRFQALEPNELDFNVGDKIRILATLEDGWLEGSLKGRTGIFPYRFVKLCPDTR [E24N], the abundance fitness was -0.032 ± 0.059.
Take EEPGTYGVALYRFQALEPNELDFPVGDKIRILATLEDGWLEGSLKGRTGIFPYRFVKLCPDTR [E24P]: the abundance fitness is -0.75 ± 0.14.
Turning to EEPGTYGVALYRFQALEPNELDFWVGDKIRILATLEDGWLEGSLKGRTGIFPYRFVKLCPDTR [E24W], the abundance fitness was -0.438 ± 0.15.
Consider EEPGTYGVALYRFQALEPNELDFCVGDKIRILATLEDGWLEGSLKGRTGIFPYRFVKLCPDTR [E24C], for which the abundance fitness is -0.414 ± 0.062.
With EEPGTYGVALYRFQALEPNELDFIVGDKIRILATLEDGWLEGSLKGRTGIFPYRFVKLCPDTR [E24I], the abundance fitness is -0.444 ± 0.083.
To EEPGTYGVALYRFQALEPNELDFFVGDKIRILATLEDGWLEGSLKGRTGIFPYRFVKLCPDTR [E24F] belongs -0.301 ± 0.067; to EEPGTYGVALYRFQALEPNELDFEVGNKIRILATLEDGWLEGSLKGRTGIFPYRFVKLCPDTR [D27N], -0.424 ± 0.086.
With EEPGTYGVALYRFQALEPNELDFEVGMKIRILATLEDGWLEGSLKGRTGIFPYRFVKLCPDTR [D27M], the abundance fitness was -0.537 ± 0.24.
On to EEPGTYGVALYRFQALEPNELDFEVGFKIRILATLEDGWLEGSLKGRTGIFPYRFVKLCPDTR [D27F], for which the abundance fitness was -0.799 ± 0.11.
EEPGTYGVALYRFQALEPNELDFEVGQKIRILATLEDGWLEGSLKGRTGIFPYRFVKLCPDTR [D27Q]: the abundance fitness is -0.723 ± 0.23.
Turning to EEPGTYGVALYRFQALEPNELDFEVGAKIRILATLEDGWLEGSLKGRTGIFPYRFVKLCPDTR [D27A], the abundance fitness was -0.426 ± 0.096.
On to EEPGTYGVALYRFQALEPNELDFEVGKKIRILATLEDGWLEGSLKGRTGIFPYRFVKLCPDTR [D27K], for which the abundance fitness was -0.902 ± 0.49.
On to EEPGTYGVALYRFQALEPNELDFEVGGKIRILATLEDGWLEGSLKGRTGIFPYRFVKLCPDTR [D27G], for which the abundance fitness is -0.776 ± 0.083.
Take EEPGTYGVALYRFQALEPNELDFEVGIKIRILATLEDGWLEGSLKGRTGIFPYRFVKLCPDTR [D27I]: the abundance fitness is -0.786 ± 0.13.
EEPGTYGVALYRFQALEPNELDFEVGHKIRILATLEDGWLEGSLKGRTGIFPYRFVKLCPDTR [D27H]: the abundance fitness was -0.927 ± 0.15.
In the case of EEPGTYGVALYRFQALEPNELDFEVGCKIRILATLEDGWLEGSLKGRTGIFPYRFVKLCPDTR [D27C], the abundance fitness was -0.811 ± 0.099.
As to EEPGTYGVALYRFQALEPNELDFEVGRKIRILATLEDGWLEGSLKGRTGIFPYRFVKLCPDTR [D27R], the abundance fitness is -0.79 ± 0.1.
Then EEPGTYGVALYRFQALEPNELDFEVGEKIRILATLEDGWLEGSLKGRTGIFPYRFVKLCPDTR [D27E], with -0.316 ± 0.15; and EEPGTYGVALYRFQALEPNELDFEVGLKIRILATLEDGWLEGSLKGRTGIFPYRFVKLCPDTR [D27L], with -0.642 ± 0.092; and EEPGTYGVALYRFQALEPNELDDEVGDKIRILATLEDGWLEGSLKGRTGIFPYRFVKLCPDTR [F23D], with -0.867 ± 0.14.
On to EEPGTYGVALYRFQALEPNELDPEVGDKIRILATLEDGWLEGSLKGRTGIFPYRFVKLCPDTR [F23P], for which the abundance fitness was -1.09 ± 0.31.
Take EEPGTYGVALYRFQALEPNELDVEVGDKIRILATLEDGWLEGSLKGRTGIFPYRFVKLCPDTR [F23V]: the abundance fitness was -0.334 ± 0.056.
Consider EEPGTYGVALYRFQALEPNELDNEVGDKIRILATLEDGWLEGSLKGRTGIFPYRFVKLCPDTR [F23N], for which the abundance fitness is -0.805 ± 0.14.
As to EEPGTYGVALYRFQALEPNELDLEVGDKIRILATLEDGWLEGSLKGRTGIFPYRFVKLCPDTR [F23L], the abundance fitness is -0.136 ± 0.065.
To EEPGTYGVALYRFQALEPNELDGEVGDKIRILATLEDGWLEGSLKGRTGIFPYRFVKLCPDTR [F23G] belongs -0.682 ± 0.094.
On to EEPGTYGVALYRFQALEPNELDHEVGDKIRILATLEDGWLEGSLKGRTGIFPYRFVKLCPDTR [F23H], for which the abundance fitness is -0.787 ± 0.14.
Then EEPGTYGVALYRFQALEPNELDKEVGDKIRILATLEDGWLEGSLKGRTGIFPYRFVKLCPDTR [F23K], with -0.13 ± 0.17.
With EEPGTYGVALYRFQALEPNELDAEVGDKIRILATLEDGWLEGSLKGRTGIFPYRFVKLCPDTR [F23A], the abundance fitness is -0.585 ± 0.1.
Take EEPGTYGVALYRFQALEPNELDEEVGDKIRILATLEDGWLEGSLKGRTGIFPYRFVKLCPDTR [F23E]: the abundance fitness is -0.94 ± 0.39.
Turning to EEPGTYGVALYRFQALEPNELDWEVGDKIRILATLEDGWLEGSLKGRTGIFPYRFVKLCPDTR [F23W], the abundance fitness is -0.63 ± 0.16.
Regarding EEPGTYGVALYRFQALEPNELDQEVGDKIRILATLEDGWLEGSLKGRTGIFPYRFVKLCPDTR [F23Q], the abundance fitness is -0.767 ± 0.39.
EEPGTYGVALYRFQALEPNELDIEVGDKIRILATLEDGWLEGSLKGRTGIFPYRFVKLCPDTR [F23I]: the abundance fitness is -0.165 ± 0.062.
For the variant EEPGTYGVALYRFQALEPNELDCEVGDKIRILATLEDGWLEGSLKGRTGIFPYRFVKLCPDTR [F23C], the abundance fitness is -0.717 ± 0.09.
EEPGTYGVALYRFQALEPNELDTEVGDKIRILATLEDGWLEGSLKGRTGIFPYRFVKLCPDTR [F23T]: the abundance fitness is -0.775 ± 0.12.
To EEPGTYGVALYRFQALEPNELDYEVGDKIRILATLEDGWLEGSLKGRTGIFPYRFVKLCPDTR [F23Y] belongs -0.688 ± 0.1; to EEPGTYGVALYRFQALEPNELDMEVGDKIRILATLEDGWLEGSLKGRTGIFPYRFVKLCPDTR [F23M], -0.227 ± 0.13.
In the case of EEPGTYGVALYRFQALEPNELDSEVGDKIRILATLEDGWLEGSLKGRTGIFPYRFVKLCPDTR [F23S], the abundance fitness is -0.527 ± 0.061.
On to EEPGTYGVALYRFQALEPNELDREVGDKIRILATLEDGWLEGSLKGRTGIFPYRFVKLCPDTR [F23R], for which the abundance fitness is -0.684 ± 0.095.
To EEPGTYGVALYRFQALEPNELYFEVGDKIRILATLEDGWLEGSLKGRTGIFPYRFVKLCPDTR [D22Y] belongs -0.108 ± 0.051.
